Test results: the supplement of paper PMC7877785
± gives the uncertainty stated by the source.

Assay: self-splicing fitness, log relative to wild type (ln ratio); higher = more splicing; Tetrahymena group I intron in knt gene, E. coli kanamycin selection, DiMSum; sequences stand for … in CUCUCU…GGAGGGAAAAGUUAUCAGGCAUGCACCUGGUAGCUAGUCUUUAAACCAAUAGAUUGCAUCGGUUUAAAAGGCAAGACCGUCAAAUUGCGGGAAAGGGGUCAACAGCCGUUCAGUACCAAGUCUCAGGGGAAACUUUGAGAUGGCCUUGCAAAGGGUAUGGUAAUAAGCUGACGGACAUGGUCCUAACCACGCAGCCAAGUCCUAAGUCAACAGAUCUUCUGUUGAUAUGGAUGCAGUUCACAGACUAAAUGUCGGUCGGGGAAGAUGUAUUCUUCUCAUAAGAUAUAGUCGGACCUCUCCUUAAUGGGAGCUAGCGGAUGAAGUGAUGCAACACUGGAGCCGCUGGGAACUAAUUUGUAUGCGAAAGUAUAUUGAUUAGUUUUGGAGUACUCGUGGUCG
In short: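 Fitness was computed with DiMSum as the error-weighted combination of replicate fold changes, kanamycin versus none, each normalised to wild type. The library randomised all eight intron nucleotides of the P1ex region, with the intron placed in the knt kanamycin-resistance gene on pET-22b(+) in E. coli BL21(DE3). Six replicate transformations were grown overnight at 37°C or 30°C on LB agar with or without 25 μg/mL kanamycin, plus 100 μg/mL carbenicillin, 50 μM IPTG and 0.2% rhamnose. Pooled colonies were amplicon-sequenced on an Illumina HiSeq 2500.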

Sequence | self-splicing fitness (ln) (30 °C) | self-splicing fitness (ln) (37 °C)
CAGUAGCAAUAUUACGGGAG | -2.37 ± 0.18 | -1.91 ± 0.27
CAGUAGCAAUAUUACGGGCU | -3.56 ± 0.26 | -1.21 ± 0.15
CAGUAGCAAUAUUACGGUCG | -0.204 ± 0.093 | 0.084 ± 0.1
CAGUAGCAAUAUUACGGUGA | -4.04 ± 0.31 | -2.58 ± 0.24
CAGUAGCAAUAUUACGGUUC | -2.7 ± 0.25 | -2.53 ± 0.29
CAGUAGCAAUAUUACGGUUU | -3.21 ± 0.22 | -0.724 ± 0.15
CAGUAGCAAUAUUACGUAGA | -3.03 ± 0.14 | -1.85 ± 0.16
CAGUAGCAAUAUUACGUAGG | -0.361 ± 0.047 | -0.0678 ± 0.066
CAGUAGCAAUAUUACGUCCA | -2.28 ± 0.21 | -1.83 ± 0.28
CAGUAGCAAUAUUACGUGAG | -1.18 ± 0.067 | -0.54 ± 0.12
CAGUAGCAAUAUUACGUGUC | -3.74 ± 0.27 | -3.17 ± 0.33
CAGUAGCAAUAUUACGUGUG | -1.64 ± 0.062 | -1.23 ± 0.085
CAGUAGCAAUAUUACGUUGG | -1.56 ± 0.075 | -0.932 ± 0.1
CAUAAGCAAUAUUACGAGUG | -2.76 ± 0.19 | -2.86 ± 0.2
CAUAAGCAAUAUUACGAUUU | -2.47 ± 0.13 | -2.19 ± 0.16
CAUAAGCAAUAUUACGCACC | -2.33 ± 0.4 | -0.0667 ± 0.48
CAUAAGCAAUAUUACGCACU | -2.12 ± 0.11 | -0.81 ± 0.11
CAUAAGCAAUAUUACGCAGA | -2.5 ± 0.17 | -2.51 ± 0.17
CAUAAGCAAUAUUACGCCAU | -1.36 ± 0.15 | -2.6 ± 0.34
CAUAAGCAAUAUUACGCCGA | – | -1.71 ± 0.48
CAUAAGCAAUAUUACGCCUA | -2.46 ± 0.35 | -0.984 ± 0.21
CAUAAGCAAUAUUACGCGGC | -3.43 ± 0.28 | -2.53 ± 0.23
CAUAAGCAAUAUUACGCUAU | -2.93 ± 0.28 | -2.99 ± 0.4
CAUAAGCAAUAUUACGCUUG | -3.08 ± 0.29 | -3.01 ± 0.25
CAUAAGCAAUAUUACGUACA | -3.09 ± 0.36 | -2.37 ± 0.19
CAUAAGCAAUAUUACGUCCG | -0.727 ± 0.081 | 1.11 ± 0.12

Sequence | self-splicing fitness (ln) (30 °C) | self-splicing fitness (ln) (37 °C)
CAUAAGCAAUAUUACGUCUA | -2.41 ± 0.14 | -1.4 ± 0.11
CAUAAGCAAUAUUACGUGUA | -2.6 ± 0.14 | -1.77 ± 0.18
CAUAAGCAAUAUUACGUUAC | -3.85 ± 0.24 | -2.15 ± 0.24
CAUCAGCAAUAUUACGAACU | -3.37 ± 0.21 | -0.499 ± 0.17
CAUCAGCAAUAUUACGACAU | -2.905 ± 0.017 | -1.51 ± 0.033
CAUCAGCAAUAUUACGACCU | -2.49 ± 0.31 | -1.17 ± 0.29
CAUCAGCAAUAUUACGACGC | -2.37 ± 0.23 | -1.23 ± 0.26
CAUCAGCAAUAUUACGACUU | -1.85 ± 0.081 | -0.408 ± 0.081
CAUCAGCAAUAUUACGAUAG | -0.277 ± 0.1 | -0.0749 ± 0.14
CAUCAGCAAUAUUACGCAGU | -2.02 ± 0.089 | -1.78 ± 0.097
CAUCAGCAAUAUUACGCCAA | -1.99 ± 0.25 | -1.81 ± 0.24
CAUCAGCAAUAUUACGCCAG | -0.613 ± 0.068 | -0.553 ± 0.1
CAUCAGCAAUAUUACGCGAU | -3.69 ± 0.23 | -2.86 ± 0.32
CAUCAGCAAUAUUACGCGCU | – | -1.87 ± 0.29
CAUCAGCAAUAUUACGCUGA | -3.2 ± 0.22 | -2.24 ± 0.27
CAUCAGCAAUAUUACGCUGG | -3.62 ± 0.19 | -2.97 ± 0.2
CAUCAGCAAUAUUACGGAAG | -0.623 ± 0.054 | -0.416 ± 0.069
CAUCAGCAAUAUUACGGGAU | – | -1.88 ± 0.22
CAUCAGCAAUAUUACGGUUA | -0.767 ± 0.1 | -0.102 ± 0.1
CAUCAGCAAUAUUACGUAAA | -1.39 ± 0.11 | -0.891 ± 0.13
CAUCAGCAAUAUUACGUAAC | -2.81 ± 0.15 | -2.01 ± 0.24
CAUCAGCAAUAUUACGUAAU | -2.56 ± 0.09 | -1.4 ± 0.1
CAUCAGCAAUAUUACGUAGA | -1.06 ± 0.065 | -0.309 ± 0.088
CAUCAGCAAUAUUACGUAGG | -0.284 ± 0.05 | 0.412 ± 0.077
CAUCAGCAAUAUUACGUCGU | -1.93 ± 0.097 | -1.19 ± 0.11
CAUCAGCAAUAUUACGUGAA | -0.729 ± 0.055 | -0.211 ± 0.09

Sequence | self-splicing fitness (ln) (30 °C) | self-splicing fitness (ln) (37 °C)
CAUCAGCAAUAUUACGUUUC | -2.76 ± 0.17 | -1.82 ± 0.16
CAUGAGCAAUAUUACGAACU | -3.53 ± 0.19 | -2.95 ± 0.26
CAUGAGCAAUAUUACGAAUG | -3.67 ± 0.2 | -2.33 ± 0.16
CAUGAGCAAUAUUACGACAC | – | -1.19 ± 0.31
CAUGAGCAAUAUUACGAGCC | -3.05 ± 0.41 | –
CAUGAGCAAUAUUACGAUGC | -3.19 ± 0.17 | -1.89 ± 0.2
CAUGAGCAAUAUUACGAUUG | -4.17 ± 0.26 | -3.15 ± 0.24
CAUGAGCAAUAUUACGCACA | -2.8 ± 0.2 | -2.44 ± 0.23
CAUGAGCAAUAUUACGCAGA | -4.53 ± 0.32 | -1.69 ± 0.15
CAUGAGCAAUAUUACGCGCA | -2.89 ± 0.19 | -1.31 ± 0.16
CAUGAGCAAUAUUACGCGGG | -1.45 ± 0.14 | -2.46 ± 0.28
CAUGAGCAAUAUUACGCGGU | -4.59 ± 0.33 | -2.33 ± 0.21
CAUGAGCAAUAUUACGGAAA | -3.26 ± 0.29 | -2.17 ± 0.24
CAUGAGCAAUAUUACGGCUU | -2.99 ± 0.17 | -2.92 ± 0.29
CAUGAGCAAUAUUACGGGCA | -2.43 ± 0.18 | -2.21 ± 0.28
CAUGAGCAAUAUUACGGGGG | -2.64 ± 0.23 | -2.64 ± 0.3
CAUGAGCAAUAUUACGGUCG | -0.34 ± 0.091 | 0.0674 ± 0.1
CAUGAGCAAUAUUACGGUUA | -2.75 ± 0.23 | -3.26 ± 0.32
CAUGAGCAAUAUUACGUGUG | -3.67 ± 0.17 | -3.09 ± 0.16
CAUUAGCAAUAUUACGAACA | -3.7 ± 0.42 | -0.317 ± 0.2
CAUUAGCAAUAUUACGAGUA | -1.59 ± 0.23 | -1.84 ± 0.27
CAUUAGCAAUAUUACGAGUG | -3.06 ± 0.15 | -2.83 ± 0.2
CAUUAGCAAUAUUACGAUCA | -2.81 ± 0.33 | -1.46 ± 0.23
CAUUAGCAAUAUUACGAUCU | -2.48 ± 0.2 | -3.22 ± 0.47
CAUUAGCAAUAUUACGCAAU | – | -1.54 ± 0.43
CAUUAGCAAUAUUACGCAGG | -2.18 ± 0.12 | -1.53 ± 0.13
